# In article PMC4860041:
# Molecular target: taxol-stabilized porcine microtubules (tubulin purified from porcine brain) (UniProt P02550)
# Assay: co-sedimentation
# Sequence of taxol-stabilized porcine microtubules (tubulin purified from porcine brain) (P02550 whole entry, looked up): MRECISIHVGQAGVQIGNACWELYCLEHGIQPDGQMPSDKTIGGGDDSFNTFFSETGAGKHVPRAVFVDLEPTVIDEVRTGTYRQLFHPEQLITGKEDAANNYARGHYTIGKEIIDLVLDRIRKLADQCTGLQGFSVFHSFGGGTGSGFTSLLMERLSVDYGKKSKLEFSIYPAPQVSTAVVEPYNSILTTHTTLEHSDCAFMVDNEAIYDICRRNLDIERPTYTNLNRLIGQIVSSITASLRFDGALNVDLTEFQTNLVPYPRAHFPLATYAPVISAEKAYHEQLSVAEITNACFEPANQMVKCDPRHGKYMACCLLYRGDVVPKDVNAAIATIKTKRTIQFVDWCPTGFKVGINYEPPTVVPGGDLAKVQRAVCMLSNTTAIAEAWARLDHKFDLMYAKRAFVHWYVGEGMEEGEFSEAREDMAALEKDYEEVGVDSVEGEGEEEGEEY
substance,measurement,value
"recombinant GFP-B>A-MNB kinase (Basic-to-Acidic mutant, KKKRR 118-122 to EEEDD)",apparent Km,a Km of 4.46 ± 2.62 μM (mean ± s.d.)
"recombinant full-length GFP-MNB kinase (Drosophila Minibrain, isoform E)",apparent Km,a Km of 0.96 ± 0.10 μM (mean ± s.d.)
